The record followed here is patent US20250034271A1 (EUCURE BEIJING BIOPHARMA, published 2025).

The target in experiment [1] is T1, mouse CD40 (mCD40) on transfected CHO cells (mouse, UniProt P27512 20-289).
T1 sequence: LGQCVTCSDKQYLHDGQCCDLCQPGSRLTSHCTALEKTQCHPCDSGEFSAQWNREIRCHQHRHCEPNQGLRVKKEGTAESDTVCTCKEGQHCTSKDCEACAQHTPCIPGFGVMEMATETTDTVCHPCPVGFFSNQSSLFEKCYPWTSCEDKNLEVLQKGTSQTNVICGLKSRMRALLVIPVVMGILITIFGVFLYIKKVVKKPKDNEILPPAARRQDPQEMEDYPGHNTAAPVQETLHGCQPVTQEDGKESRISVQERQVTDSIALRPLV
Kind of experiment: flow cytometry, CHO-mCD40 cells, anti-mIgG Fc-FITC. The procedure:
(§1) 25 μl CHO cells were added to each well. 25 μl purified anti-hCD40 antibodies (1 μg/ml) (7F10, 6A7, or 4H6) were added to each well and were incubated at 4° C. for 30 minutes.
(§2) After being washed with PBS (1200 rmp, 5 min) twice, 50 μl of FITC labeled anti-mouse IgG Fc antibody (anti-mIgG Fc-FITC) was added into each well 1:100 dilution, followed by incubated at 4° C. for 30 minutes, and then PBS wash (1200 rmp, 5 min). The signals for FITC were detected by flow cytometry.

Experiment [2] deals with T1, mouse CD40 (mCD40) on transfected CHO …. Nature of the experiment: flow cytometry, CHO-mCD40 cells, antibody 1 µg/ml, anti-mIgG Fc-FITC; x: Anti-mouse-IgG-Fc-FITC, y: SSC-H. As to the method: as §1, §2
The target of experiment [3] is T2, monkey (rhesus macaque) CD40 (rmCD40) on transfected CHO cells (rhesus macaque, UniProt P25942 21-277 (human entry)).
T2 construct: also called monkey CD40
T2 chain: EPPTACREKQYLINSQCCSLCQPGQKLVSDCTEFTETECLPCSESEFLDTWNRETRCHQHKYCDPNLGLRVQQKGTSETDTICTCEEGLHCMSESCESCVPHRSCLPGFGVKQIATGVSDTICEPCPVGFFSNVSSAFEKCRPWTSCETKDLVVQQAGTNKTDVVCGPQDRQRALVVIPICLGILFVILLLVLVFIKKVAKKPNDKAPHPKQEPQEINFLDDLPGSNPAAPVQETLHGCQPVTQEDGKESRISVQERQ
Kind of experiment: flow cytometry, CHO-rmCD40 cells, antibody 1 µg/ml, anti-mIgG Fc-FITC; x: Anti-mouse-IgG-Fc-FITC, y: SSC-H. The procedure:
as §1, §2

Experiment [4] concerns the target T3, chimeric (mouse and human) CD40 (chiCD40) on transfected CHO cells (chimeric (mouse and human)).
T3 construct: also called human-mouse chimeric CD40; chimeric CD40
Nature of the experiment: flow cytometry, CHO-chiCD40 cells, antibody 1 µg/ml, anti-mIgG Fc-FITC; x: Anti-mouse-IgG-Fc-FITC, y: SSC-H. The procedure: as §1, §2

Experiment [5] concerns the target T4, human CD40 (hCD40) on transiently transfected CHO cells (human, UniProt P25942 21-277).
T4 construct: also called TNF Receptor Superfamily Member 5; TNFRSF5
Kind of experiment: flow cytometry, CHO cells with hCD40, antibody titrated then hCD40L-hFc added (blocked ligand: hCD40L-hFc); y: hCD40 Ligand-hFc, x: Anti-mouse-IgG-Fc-PE. The procedure: The anti-hCD40 antibodies were collected from mouse ascites fluid and purified by chromatography. 25 μl CHO cells transiently transfected with human CD40 were added to each well in a plate. The purified antibodies were titrated to final concentrations of 50, 5, 0.5, 0.05, and 0.005 μg/ml. The titrated antibodies were added to each well at 25 μl per well at 4° C. and incubated for 30 minutes.
hCD40 ligand-hFc was expressed by H293T cells. 50 μl of hCD40L-hFc was added to each well (1:500). The cells with hCD40L-hFc and the antibodies were incubated at 4° C. for 15 minutes.
After being washed with phosphate-buffered saline (PBS) twice, 50 μl of PE labeled anti-mouse IgG Fc antibody (anti-mIgG Fc-PE) at 1:500 dilution and FITC-labeled anti-human IgG Fc antibody (anti-hIgG Fc-FITC) at 1:100 dilution were added into each well, and incubated for 30 minutes at 4° C., followed by PBS wash. The signals for FITC and PE were determined by flow cytometry.

Experiment [6] concerns the target T5, Histidine-tagged human CD40 protein (hCD40-His) (human, UniProt P25942 21-193).
T5 construct: not shown: histidine tag
Kind of experiment: SPR, Biacore T200; antibody on Protein A chip, hCD40-His injected; 1:1 fit. As to the method:
The binding affinity of the anti-hCD40 antibodies were measured using surface plasmon resonance (SPR) using Biacore (Biacore, INC, Piscataway N.J.) T200 biosensor equipped with pre-immobilized Protein A sensor chips.
Anti-hCD40 antibodies were collected by transfecting CHO-S cells and then purified. The antibodies (1 μg/mL) were injected into Biacore T200 biosensor at 10 μL/min for about 24-33 seconds to achieve to a desired protein density (about 44-57 response units (RU)). […] Dissociation was monitored for 300 seconds. The chip was regenerated after the last injection of each titration with Glycine (pH 2.0, 30 μL/min for 12 seconds).

In experiment [7] the target is T6, Histidine-tagged mfCD40 protein (mfCD40-His), Macaca fascicularis (Macaca fascicularis, UniProt G7PG38 21-193).
T6 construct: not shown: histidine tag
Kind of experiment: SPR, Biacore T200; antibody on Protein A chip, mfCD40-His injected; 1:1 fit. As to the method: The binding affinity of the anti-hCD40 antibodies with mfCD40 (Macaca fascicularis) were measured using surface plasmon resonance (SPR) using Biacore (Biacore, INC, Piscataway N.J.) T200 biosensor equipped with pre-immobilized Protein A sensor chips.
Anti-hCD40 antibodies were purified. The antibodies (0.5 μg/mL) were injected into Biacore T200 biosensor at 10 μL/min for about 18-26 seconds to achieve to a desired protein density (about 44-58 response units (RU)). […] Dissociation was monitored for 300-600 seconds. The chip was regenerated after the last injection of each titration with Glycine (pH 2.0, 30 μL/min for 12 seconds).

T5 sequence (P25942 21-193 limits assumed): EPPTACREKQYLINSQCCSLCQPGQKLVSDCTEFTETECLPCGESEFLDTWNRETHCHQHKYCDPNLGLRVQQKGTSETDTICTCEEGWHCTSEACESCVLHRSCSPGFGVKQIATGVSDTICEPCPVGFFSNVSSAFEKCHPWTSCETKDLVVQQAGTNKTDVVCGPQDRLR

B1: mouse anti-hCD40 antibody 07-4H6 (antibody, V domains shown)
VH: EVKLQESGPSLVKPSQTLSLTCSVTGDSVSSGYWNWIRKFPGNKLEYMGFISYSGSTYYTPSLKSRISITRDTSKNQFYLQLNSVTTEDTATYFCARFRRYDDGVDYWGQGTTLTVSS
VL: DIQMTQSPSSLSASLGERVSLTCRASHEISGYLSWIQQKPDGTIKRLINAASTLASGVPKRFSGSRSGSEYSLTINSLESEDFADYYCLQYSSYPWTFGGGTKLEIK
notes: Mouse antibody purified from ascites
On to B1, for which the binding result in experiment [1] was “no binding”. The “% cells in the Anti-mouse-IgG-Fc-FITC positive gate” value in experiment [2] turned out to be 1.56%. Moreover, in experiment [3], the “% cells in the Anti-mouse-IgG-Fc-FITC positive gate” value was determined as 88.5%. For the same molecule, the “% cells in the Anti-mouse-IgG-Fc-FITC positive gate” value in experiment [4] is 87.8%. In experiment [5], the “% cells lower left (ligand- / antibody-) at 0.005µg/mL” value was 35.7%, the “% cells lower left (ligand- / antibody-) at 0.05µg/mL” value was determined as 16.8%, the “% cells lower left (ligand- / antibody-) at 0.5µg/mL” value is 11.1% and the “% cells lower left (ligand- / antibody-) at 5µg/mL” value was 11.4%. In addition, in experiment [5], the “% cells lower left (ligand- / antibody-) at 50µg/mL” value came out at 7.76%, the “% cells lower right (ligand- / antibody+) at 0.005µg/mL” value is 3.7%, the “% cells lower right (ligand- / antibody+) at 0.05µg/mL” value worked out at 26.9% and the “% cells lower right (ligand- / antibody+) at 0.5µg/mL” value stood at 63.6%. In experiment [5], the “% cells lower right (ligand- / antibody+) at 5µg/mL” value is 80.8%, the “% cells lower right (ligand- / antibody+) at 50µg/mL” value was found to be 83.7%, the “% cells upper left (ligand+ / antibody-) at 0.005µg/mL” value is 1.95% and the “% cells upper left (ligand+ / antibody-) at 0.05µg/mL” value turned out to be 0%. In addition, in experiment [5], the “% cells upper left (ligand+ / antibody-) at 0.5µg/mL” value is 0%, the “% cells upper left (ligand+ / antibody-) at 5µg/mL” value was 0%, the “% cells upper left (ligand+ / antibody-) at 50µg/mL” value turned out to be 0.185% and the “% cells upper right (ligand+ / antibody+) at 0.005µg/mL” value came out at 58.7%. Moreover, in experiment [5], the “% cells upper right (ligand+ / antibody+) at 0.05µg/mL” value was 56.4%, the “% cells upper right (ligand+ / antibody+) at 0.5µg/mL” value worked out at 25.4%, the “% cells upper right (ligand+ / antibody+) at 5µg/mL” value was determined as 7.75% and the “% cells upper right (ligand+ / antibody+) at 50µg/mL” value stood at 8.32%.

B2: 4H6-H3K2-IgG4 (antibody, V domains shown)
VH: EVQLQESGPGLVKPSQTLSLTCTVSGDSVSSGYWNWIRKHPGKKLEYMGFISYSGSTYYTPSLKSRITISRDTSKNQFSLKLSSVTAADTAVYFCARFRRYDDGVDYWGQGTLVTVSS
VL: DIQMTQSPSAMSASVGDRVTITCRASHEISGYLSWIQQKPGGTIKRLINAASTLASGVPSRFSGSRSGTEFTLTISSLQPEDFADYYCLQYSSYPWTFGGGTKLEIK
notes: Humanized
Consider B2, for which, in experiment [6], the dissociation constant (Kd) turned out to be 53.6 nM, the koff was found to be 0.0215 s⁻¹ and the kon is 401000 M⁻¹ s⁻¹. In experiment [7], this molecule returned a dissociation constant (Kd) of 33.6 nM, a koff of 0.0192 s⁻¹ and a kon of 570000 M⁻¹ s⁻¹.

B3: 4H6-H4K2-IgG4 (antibody, V domains shown)
VH: EVQLQESGPGLVKPSQTLSLTCTVSGDSVSSGYWNWIRKFPGKKLEYMGFISYSGSTYYTPSLKSRITISRDTSKNQFSLKLSSVTAADTAVYFCARFRRYDDGVDYWGQGTLVTVSS
VL: DIQMTQSPSAMSASVGDRVTITCRASHEISGYLSWIQQKPGGTIKRLINAASTLASGVPSRFSGSRSGTEFTLTISSLQPEDFADYYCLQYSSYPWTFGGGTKLEIK
notes: Humanized
In experiment [6], B3 showed a dissociation constant Kd of 48.7 nM, a koff of 0.0191 s⁻¹ and an on-rate constant (kon) of 392000 M⁻¹ s⁻¹. In experiment [7], this molecule showed a Kd of 29.7 nM, a koff of 0.0169 s⁻¹ and an on-rate constant (kon) of 568000 M⁻¹ s⁻¹.

B4: 6A7-H3K3-IgG4 (antibody, V domains shown)
VH: QVQLVQSGAEVKKPGASVKVSCKASGYTFISYYIYWVRQAPGQGLEWIGGINPRNGGTNFNEKFKSRATLTVDTSISTAYMELSRLRSEDTAVYYCTRHGNGVYWGQGTTVTVSS
VL: DVVMTQSPLSLPVTLGDPASISCRSSQSLLHSNGNTYLHWYQQRPGQSPNHLIYQVSNRFSGVPDRFSGSGSGTDFTLKISRVEAEDVGVYFCSQTTHVPWTFGGGTKLEIK
notes: Humanized
Regarding B4, in experiment [6], the Kd is 2.9 nM, the koff was 0.000356 s⁻¹ and the kon came to 123000 M⁻¹ s⁻¹. Also, in experiment [7], binding was put at a Kd of 0.871 nM, the dissociation rate constant (koff) was found to be 0.000201 s⁻¹ and the kon came to 231000 M⁻¹ s⁻¹.

B5: 6A7-H4K2-IgG4 (antibody, V domains shown)
VH: QVQLVQSGAEVKKPGASVKLSCKASGYTFISYYIYWVKQAPGQGLEWIGGINPRNGGTNFNEKFKSRATLTVDTSISTAYMELSRLRSEDTAVYYCTRHGNGVYWGQGTTLTVSS
VL: DVVMTQSPLSLPVTLGQPASISCRSSQSLLHSNGNTYLHWYQQRPGQSPNHLIYQVSNRFSGVPDRFSGSGSGTDFTLKISRVEAEDVGVYFCSQTTHVPWTFGGGTKVEIK
notes: Humanized
In experiment [6], B5 returned a Kd of 3.06 nM, a dissociation rate constant (koff) of 0.000322 s⁻¹ and an association rate constant (kon) of 105000 M⁻¹ s⁻¹. Moreover, in experiment [7], the Kd worked out at 3.96 nM, the dissociation rate constant (koff) amounted to 0.000787 s⁻¹ and the kon turned out to be 199000 M⁻¹ s⁻¹.
